Earlier results, collected in publication PMC2686754.

Legend:
[1] = target: TGF-β1 (Homo sapiens) (UniProt P01137)
[2] = target: BMP4 (Homo sapiens) (UniProt P12644)
UniProt P12644, sequence (P12644 293-408): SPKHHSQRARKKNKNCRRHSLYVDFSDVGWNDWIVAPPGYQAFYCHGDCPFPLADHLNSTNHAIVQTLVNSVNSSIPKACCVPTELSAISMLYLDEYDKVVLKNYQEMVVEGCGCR

UniProt P01137, sequence (P01137 279-390): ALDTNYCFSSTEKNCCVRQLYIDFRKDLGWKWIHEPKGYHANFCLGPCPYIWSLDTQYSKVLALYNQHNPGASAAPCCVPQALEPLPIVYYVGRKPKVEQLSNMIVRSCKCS

Kd [1]: 30 nM
Kd [2]: 5 nM
Substance: CCN2 (from UniProt P29279)
